Patent publication US20260139057A1 (University of California, published 2026)
Numbering of substitutions follows the chain as printed. Each block holds one binder with its values, some of them ahead of it.

How the values were obtained:
[1] = target: T1, integrin αvβ6 on transfected cells (CHO cells; Expi293 cells transiently expressing αvβ6) (human, UniProt P06756 31-1048; P18564 22-788); experiment: flow cytometry on Expi293 cells transiently expressing αvβ6, antibody at 2.5 µg/ml
T1 construct: whole, on cells; Legend says 'CHO cells expressing human αvβ8 or αvβ6'; read as human; also called αvβ6 expressing CHO cells
Description: HEK 293 cells stably expressing αvβ3 were stained and the percentage of relative binding to the mean fluorescence intensity of AP3 is shown, B) Expi293 cells transiently expressing αvβ6 were stained and the percentage of relative binding to the mean fluorescence intensity of 3G9 is shown, C) HEK 293 cells stably expressing αvβ8 were stained and the percentage of relative binding to the mean fluorescence intensity of HuF12 is shown. All primary antibodies were used at 2.5 ug/ml. […] Binding or 3G9 is shown and percent binding of antibodies relative to 3G9 binding to αvβ6 is shown. Dotted line indicate binding observed with each positive control antibody,
RGD ligands bind promiscuously to a number of integrins. A highly desirable quality in RGD-mimetics is to retain specificity for some but not all integrins. One highly desirable property would be a dual inhibitor to both the αvβ8- and αvβ6-integrins, without cross-reactivity to other integrins. This property would facilitate specific targeting of integrin-mediated TGF-β activation without the liability of side-effects mediated by broadly blocking other integrins. We first measured binding to αvβ3 expressing 293 cells. […] Expi293 cells transiently expressing αvβ6 were stained and the percentage of relative binding to the mean fluorescence intensity of anti-β6 (3G9) determined. […]

[2] = target: T2, integrin αvβ6 ectodomain (immobilized) (human, UniProt P06756 31-992; P18564 22-709); experiment: binding to immobilized αvβ6 ectodomain
T2 construct: extracellular domain; Bought from R&D Systems or made in ExpiCHO cells; also called immobilized human αvβ6

[3] = target: T3, human integrin αvβ8 on transfected cells (CHO cells stably transfected; HEK 293 cells stably expressing αvβ8) (human, UniProt P06756 31-1048; P26012 43-769); experiment: flow cytometry on HEK 293 cells stably expressing αvβ8
T3 construct: whole, on cells; also called CHO αvβ8 cells; αvβ8 expressing CHO cells
Source text: (§1) FIG. 33 H4C8 RGD3 and H4C8 RGD1 show specificity for αvβ6 and αvβ8, VL Fr4 K108/V109 humanization improves or maintains binding, VH Fr4 Q72 improves binding over E72. A) Binding of anti-β3 (AP3) relative to F12 IgG4, H4C8 RGD1 IgG4,H4C8 RGD3 IgG4, H3C8 RGD3 with VL Fr4 V108/L109 (mouse) IgG4, H4C8 RGD3 IgG4, H3C8 RGD3 VL Fr4 K108/V109 (human) IgG4, H4C8 RGD1 VH Fr3 E72, H4C8 RGD3 VH Fr3 E72 IgG4. HEK 293 cells stably expressing αvβ3 were stained and the percentage of relative binding to the mean fluorescence intensity of AP3 is shown, B) Expi293 cells transiently expressing αvβ6 were stained and the percentage of relative binding to the mean fluorescence intensity of 3G9 is shown, C) HEK 293 cells stably expressing αvβ8 were stained and the percentage of relative binding to the mean fluorescence intensity of HuF12 is shown. All primary antibodies were used at 2.5 ug/ml. […] Binding or 3G9 is shown and percent binding of antibodies relative to 3G9 binding to αvβ6 is shown. Dotted line indicate binding observed with each positive control antibody, […]

[4] = target: T4, integrin αvβ1 ectodomain (immobilized) (Homo sapiens (Human), UniProt P06756 31-992; P05556 21-728); experiment: binding to immobilized ectodomains
T4 construct: R&D Systems; copies: 1 + 1

[5] = target: T5, integrin αvβ5 ectodomain (immobilized) (Homo sapiens (Human), UniProt P06756 31-992; P18084 24-719); experiment: binding to immobilized ectodomains
T5 construct: R&D Systems; copies: 1 + 1

[6] = target: T6, integrin αvβ3 on HEK 293 cells stably expressing αvβ3 (Homo sapiens (Human), UniProt P06756 31-1048; P05106 27-788); experiment: flow cytometry on HEK 293 cells stably expressing αvβ3
T6 construct: also called αvβ3 expressing 293 cells
Source text: A) Binding of anti-β3 (AP3) relative to F12 IgG4, H4C8 RGD1 IgG4,H4C8 RGD3 IgG4, H3C8 RGD3 with VL Fr4 V108/L109 (mouse) IgG4, H4C8 RGD3 IgG4, H3C8 RGD3 VL Fr4 K108/V109 (human) IgG4, H4C8 RGD1 VH Fr3 E72, H4C8 RGD3 VH Fr3 E72 IgG4. HEK 293 cells stably expressing αvβ3 were stained and the percentage of relative binding to the mean fluorescence intensity of AP3 is shown, B) Expi293 cells transiently expressing αvβ6 were stained and the percentage of relative binding to the mean fluorescence intensity of 3G9 is shown, C) HEK 293 cells stably expressing αvβ8 were stained and the percentage of relative binding to the mean fluorescence intensity of HuF12 is shown. All primary antibodies were used at 2.5 ug/ml. […] Binding or 3G9 is shown and percent binding of antibodies relative to 3G9 binding to αvβ6 is shown. Dotted line indicate binding observed with each positive control antibody,
RGD ligands bind promiscuously to a number of integrins. A highly desirable quality in RGD-mimetics is to retain specificity for some but not all integrins. One highly desirable property would be a dual inhibitor to both the αvβ8- and αvβ6-integrins, without cross-reactivity to other integrins. This property would facilitate specific targeting of integrin-mediated TGF-β activation without the liability of side-effects mediated by broadly blocking other integrins. We first measured binding to αvβ3 expressing 293 cells. Binding of anti-β3 (AP3) relative to F12 IgG4, H4C8 RGD1 IgG4,H4C8 RGD3 IgG4, H3C8 RGD3 with VL Fr4 V108/L109 (mouse) IgG4, H4C8 RGD3 IgG4, H3C8 RGD3 VI Fr4 K108/V109 (human) IgG4, H4C8 RGD1 Vh Fr3 E72, H4C8 RGD3 Vh Fr3 E72 IgG4. […] Expi293 cells transiently expressing αvβ6 were stained and the percentage of relative binding to the mean fluorescence intensity of anti-β6 (3G9) determined.

[7] = target: T3, human integrin αvβ8 on transfected …; experiment: flow cytometry on HEK 293 cells stably expressing αvβ8, antibody at 2.5 µg/ml
Source text: as §1

[8] = target: recombinant human integrin αvβ8 ectodomain (human, UniProt P06756 31-992; P26012 43-681); experiment: cell-based or functional assay
[9] = target: T1, integrin αvβ6 on transfected cells (CHO …); experiment: flow cytometry on CHO cells expressing αvβ6, antibodies as IgG4
[10] = target: T4, integrin αvβ1 ectodomain (immobilized); experiment: binding to immobilized integrin ectodomains blocked with BSA
[11] = target: T2, integrin αvβ6 ectodomain (immobilized); experiment: as above
[12] = target: T5, integrin αvβ5 ectodomain (immobilized); experiment: as above

T5 sequence (P06756 31-992 limits assumed, chain 1 of 2): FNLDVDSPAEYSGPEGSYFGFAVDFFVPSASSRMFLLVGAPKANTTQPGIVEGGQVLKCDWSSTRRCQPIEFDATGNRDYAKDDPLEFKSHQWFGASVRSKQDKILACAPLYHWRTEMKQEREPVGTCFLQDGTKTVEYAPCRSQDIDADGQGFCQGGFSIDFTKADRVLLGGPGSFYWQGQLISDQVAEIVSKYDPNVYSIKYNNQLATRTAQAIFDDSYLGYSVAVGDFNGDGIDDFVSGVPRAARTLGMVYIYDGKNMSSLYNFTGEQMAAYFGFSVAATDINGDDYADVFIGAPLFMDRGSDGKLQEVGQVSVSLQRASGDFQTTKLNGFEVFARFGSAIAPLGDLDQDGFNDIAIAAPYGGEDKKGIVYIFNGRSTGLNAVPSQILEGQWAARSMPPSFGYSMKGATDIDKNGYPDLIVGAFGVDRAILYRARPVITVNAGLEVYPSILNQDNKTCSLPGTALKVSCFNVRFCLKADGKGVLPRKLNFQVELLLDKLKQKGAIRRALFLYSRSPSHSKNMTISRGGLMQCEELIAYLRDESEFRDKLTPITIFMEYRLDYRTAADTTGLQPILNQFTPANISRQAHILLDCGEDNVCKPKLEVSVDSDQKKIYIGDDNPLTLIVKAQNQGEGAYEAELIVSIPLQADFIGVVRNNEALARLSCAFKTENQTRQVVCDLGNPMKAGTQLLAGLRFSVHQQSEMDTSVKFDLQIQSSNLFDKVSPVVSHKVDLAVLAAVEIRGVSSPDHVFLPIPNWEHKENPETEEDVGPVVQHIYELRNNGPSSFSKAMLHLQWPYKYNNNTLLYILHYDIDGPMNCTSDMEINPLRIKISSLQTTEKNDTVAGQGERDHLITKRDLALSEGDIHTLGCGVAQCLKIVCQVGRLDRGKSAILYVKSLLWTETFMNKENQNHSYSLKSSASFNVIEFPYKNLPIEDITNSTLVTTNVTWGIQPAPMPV
T5 sequence (P18084 24-719 limits assumed, chain 2 of 2): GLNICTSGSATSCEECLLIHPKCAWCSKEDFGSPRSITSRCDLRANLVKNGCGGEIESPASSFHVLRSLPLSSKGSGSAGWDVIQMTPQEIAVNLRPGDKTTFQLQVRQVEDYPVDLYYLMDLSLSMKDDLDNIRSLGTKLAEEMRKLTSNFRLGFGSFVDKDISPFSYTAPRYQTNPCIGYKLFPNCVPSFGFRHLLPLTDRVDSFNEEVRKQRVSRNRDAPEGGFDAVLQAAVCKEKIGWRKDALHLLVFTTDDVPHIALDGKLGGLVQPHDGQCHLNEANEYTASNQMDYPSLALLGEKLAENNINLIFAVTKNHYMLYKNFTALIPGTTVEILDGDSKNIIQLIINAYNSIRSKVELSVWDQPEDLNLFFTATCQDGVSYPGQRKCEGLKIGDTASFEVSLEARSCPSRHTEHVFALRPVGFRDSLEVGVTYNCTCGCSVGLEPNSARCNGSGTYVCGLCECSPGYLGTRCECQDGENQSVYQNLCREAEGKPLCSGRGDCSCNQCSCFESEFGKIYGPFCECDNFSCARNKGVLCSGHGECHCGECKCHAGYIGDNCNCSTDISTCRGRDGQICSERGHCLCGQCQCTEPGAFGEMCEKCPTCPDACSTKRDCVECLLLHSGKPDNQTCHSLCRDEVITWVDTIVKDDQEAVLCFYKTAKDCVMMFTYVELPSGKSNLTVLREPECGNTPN
T2 sequence (P06756 31-992, chain 1 of 2): as the sequence (P06756 31-992 limits assumed, chain 1 of 2) above
T2 sequence (P18564 22-709, chain 2 of 2): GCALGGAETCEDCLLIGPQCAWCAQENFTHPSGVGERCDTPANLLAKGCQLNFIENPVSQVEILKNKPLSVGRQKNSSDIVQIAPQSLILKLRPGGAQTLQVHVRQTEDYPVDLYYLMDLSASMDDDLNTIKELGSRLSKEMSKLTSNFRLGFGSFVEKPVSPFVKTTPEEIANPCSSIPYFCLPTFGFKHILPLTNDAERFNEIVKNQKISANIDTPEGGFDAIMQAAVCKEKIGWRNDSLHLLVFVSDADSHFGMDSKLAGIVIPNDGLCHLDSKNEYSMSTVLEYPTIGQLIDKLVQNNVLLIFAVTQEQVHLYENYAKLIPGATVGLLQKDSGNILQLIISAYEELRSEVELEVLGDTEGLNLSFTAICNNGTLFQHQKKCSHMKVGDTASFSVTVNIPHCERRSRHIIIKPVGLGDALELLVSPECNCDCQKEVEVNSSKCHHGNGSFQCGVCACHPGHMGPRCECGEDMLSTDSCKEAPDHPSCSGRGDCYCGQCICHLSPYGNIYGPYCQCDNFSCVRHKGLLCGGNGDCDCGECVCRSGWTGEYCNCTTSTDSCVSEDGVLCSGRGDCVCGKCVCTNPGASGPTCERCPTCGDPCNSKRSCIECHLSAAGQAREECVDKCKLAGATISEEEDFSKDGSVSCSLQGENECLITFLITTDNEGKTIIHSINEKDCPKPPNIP
T4 sequence (P06756 31-992 limits assumed, chain 1 of 2): as the sequence (P06756 31-992 limits assumed, chain 1 of 2) above
T4 sequence (P05556 21-728 limits assumed, chain 2 of 2): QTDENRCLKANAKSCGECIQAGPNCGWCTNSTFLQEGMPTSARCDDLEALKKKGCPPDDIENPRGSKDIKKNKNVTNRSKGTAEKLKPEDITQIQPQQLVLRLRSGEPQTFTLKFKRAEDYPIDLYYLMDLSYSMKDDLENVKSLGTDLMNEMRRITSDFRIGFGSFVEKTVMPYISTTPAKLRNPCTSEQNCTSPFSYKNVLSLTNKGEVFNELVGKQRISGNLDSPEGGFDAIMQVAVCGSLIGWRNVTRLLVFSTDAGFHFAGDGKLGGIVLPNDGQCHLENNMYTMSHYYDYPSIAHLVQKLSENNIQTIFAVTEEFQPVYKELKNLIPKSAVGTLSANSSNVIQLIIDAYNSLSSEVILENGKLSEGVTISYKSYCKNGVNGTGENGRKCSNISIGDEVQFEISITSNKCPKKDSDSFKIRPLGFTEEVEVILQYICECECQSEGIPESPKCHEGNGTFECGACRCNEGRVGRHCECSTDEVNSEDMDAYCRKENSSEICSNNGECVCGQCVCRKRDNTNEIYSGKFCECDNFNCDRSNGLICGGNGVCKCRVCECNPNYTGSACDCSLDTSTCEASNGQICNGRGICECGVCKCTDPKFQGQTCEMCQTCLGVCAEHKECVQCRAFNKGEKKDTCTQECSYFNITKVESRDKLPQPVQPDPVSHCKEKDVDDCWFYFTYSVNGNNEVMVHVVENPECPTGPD
T1 sequence (P06756 31-1048, chain 1 of 2): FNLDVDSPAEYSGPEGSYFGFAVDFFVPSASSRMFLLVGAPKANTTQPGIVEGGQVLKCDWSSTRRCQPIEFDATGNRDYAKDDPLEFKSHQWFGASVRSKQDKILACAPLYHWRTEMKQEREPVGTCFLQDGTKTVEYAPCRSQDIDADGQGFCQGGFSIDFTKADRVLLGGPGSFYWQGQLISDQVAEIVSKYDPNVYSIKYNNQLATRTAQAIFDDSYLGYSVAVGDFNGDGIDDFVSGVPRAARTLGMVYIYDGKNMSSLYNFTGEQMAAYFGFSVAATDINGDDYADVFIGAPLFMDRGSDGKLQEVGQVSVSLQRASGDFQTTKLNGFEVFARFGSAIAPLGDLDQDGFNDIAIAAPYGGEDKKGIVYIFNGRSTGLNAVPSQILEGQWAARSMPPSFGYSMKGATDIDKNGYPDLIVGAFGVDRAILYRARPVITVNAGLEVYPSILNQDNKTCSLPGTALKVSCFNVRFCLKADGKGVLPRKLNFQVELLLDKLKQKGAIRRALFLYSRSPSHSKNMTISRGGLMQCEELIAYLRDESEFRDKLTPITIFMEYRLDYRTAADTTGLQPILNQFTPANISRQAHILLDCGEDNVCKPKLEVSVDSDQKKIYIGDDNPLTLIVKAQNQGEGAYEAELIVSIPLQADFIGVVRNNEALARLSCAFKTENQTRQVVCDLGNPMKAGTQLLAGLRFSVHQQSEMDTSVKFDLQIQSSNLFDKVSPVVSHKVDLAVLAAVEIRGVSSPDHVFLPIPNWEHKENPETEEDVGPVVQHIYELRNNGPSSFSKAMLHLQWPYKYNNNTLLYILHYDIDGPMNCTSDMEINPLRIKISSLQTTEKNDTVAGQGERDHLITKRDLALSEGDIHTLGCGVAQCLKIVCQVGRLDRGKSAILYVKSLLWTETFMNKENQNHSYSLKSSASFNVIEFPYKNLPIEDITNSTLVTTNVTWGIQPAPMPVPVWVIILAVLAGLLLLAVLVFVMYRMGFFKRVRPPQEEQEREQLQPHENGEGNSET
T1 sequence (P18564 22-788, chain 2 of 2): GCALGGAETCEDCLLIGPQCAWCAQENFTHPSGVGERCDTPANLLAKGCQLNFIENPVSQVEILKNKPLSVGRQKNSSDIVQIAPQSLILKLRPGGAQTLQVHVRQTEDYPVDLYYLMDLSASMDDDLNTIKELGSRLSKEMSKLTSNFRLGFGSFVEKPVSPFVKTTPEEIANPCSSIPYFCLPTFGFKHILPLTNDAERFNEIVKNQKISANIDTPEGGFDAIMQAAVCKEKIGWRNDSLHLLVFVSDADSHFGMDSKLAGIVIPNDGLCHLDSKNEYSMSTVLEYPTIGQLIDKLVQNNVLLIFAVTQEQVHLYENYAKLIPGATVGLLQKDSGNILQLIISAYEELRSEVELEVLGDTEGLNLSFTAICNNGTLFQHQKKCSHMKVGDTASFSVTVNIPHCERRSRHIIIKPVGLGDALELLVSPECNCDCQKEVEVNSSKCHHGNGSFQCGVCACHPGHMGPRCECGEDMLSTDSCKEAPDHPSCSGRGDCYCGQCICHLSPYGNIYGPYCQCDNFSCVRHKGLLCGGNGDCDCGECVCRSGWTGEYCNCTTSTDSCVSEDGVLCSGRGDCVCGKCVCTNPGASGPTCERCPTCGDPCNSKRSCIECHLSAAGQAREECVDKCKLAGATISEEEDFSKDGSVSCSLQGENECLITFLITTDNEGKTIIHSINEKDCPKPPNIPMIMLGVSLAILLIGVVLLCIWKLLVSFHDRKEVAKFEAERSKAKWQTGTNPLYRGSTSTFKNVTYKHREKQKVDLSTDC

binding result [1]: binds
binding result [2]: binds
binding result [3]: no binding (tested: 2.5 µg/ml)
binding result [4]: no binding
binding result [5]: no binding
binding result [6]: no binding (tested: 2.5 µg/ml)
B1: H4C8 RGD1 VH Fr3 E72 (antibody, IgG4, V domains shown)
VH: QVQLVQSGAEVKKPGASVKVSCKVSGYTLTRQSMHWVRQAPGKGLEWMGRINTETGEPTYAQKFQGRVTMTEDTSTDTAYMELSSLRSEDTAVYFCAIFYYGRDTWGQGTTVTVSS
VL: EIVMTQSPATLSVSPGERVTLSCKSSQSLLRRGDLATIHGNALAWYQQKPGQAPRLLIYWASTRETGVPARFSGSGSGTEFTLTISSLQSEDFAVYYCKQSYNLLSFGQGTKVEIKR

binding result [1]: binds
binding result [2]: binds
binding result [7]: binds
binding result [4]: no binding
binding result [5]: no binding
binding result [6]: no binding (tested: 2.5 µg/ml)
B2: H4C8 RGD3 VH Fr3 E72 IgG4 (antibody, V domains shown)
VH: B1 VH
VL: B1 VL with R31G, A36G, T37R, I38L, H39K, G40K
notes: IgG4

ED50 of the inhibition of αvβ8-mediated TGF-β activation (immobilized human αvβ8, TMLC GARP/L-TGF-β reporter cells) [8]: 0.14 µg/mL
binding result [9]: no binding (tested: 1 µg/mL)
binding result [10]: no binding
binding result [11]: no binding
binding result [12]: no binding
binding result [6]: no binding (tested: 2.5 µg/ml)
B3: HuC6D4 F12 IgG4 (antibody)
heavy: QIQLVQSGAEVKKPGASVKISCKASGYTFTKYSMHWVRQAPGQGLEWVARINTETGEPTFADDFRGRFTVTLDTSTSTAYLEIRSLRSDDTAVYFCAIFYYGRDTWGQGTTLTVSSASTKGPSVFPLAPCSRSTSESTAALGCLVKDYFPEPVTVSWNSGALTSGVHTFPAVLQSSGLYSLSSVVTVPSSSLGTKTYTCNVDHKPSNTKVDKRVESKYGPPCPPCPAPEFLGGPSVFLFPPKPKDTLMISRTPEVTCVVVDVSQEDPEVQFNWYVDGVEVHNAKTKPREEQFNSTYRVVSVLTVLHQDWLNGKEYKCKVSNKGLPSSIEKTISKAKGQPREPQVYTLPPSQEEMTKNQVSLTCLVKGFYPSDIAVEWESNGQPENNYKTTPPVLDSDGSFFLYSKLTVDKSRWQEGNVFSCSVMHEALHNHYTQKSLSLSPGK
VL: EIVMTQSPATLSVSPGERVTMSCKSSQSLLHSRSRKNYLAWYQQKPGQAPRLLIYWASTRESGVPARFSGSGSGTEFTLTISSVQSEDFAVYYCKQSYNLLSFGQGTVLEIKR
notes: also called HuF12
